From patent US20120231014A1 come the findings set out here.

Assay [1] has as its target PTPσ-Fc fusion protein (recombinant mouse PTPσ extracellular domain, short isoform, fused to Fc) (mouse) (UniProt B0V2N1). As to the kind of experiment: cell-free plate assay: PTPσ-Fc on protein A plates, increasing Ncn-AP, bound AP activity, Scatchard analysis.
For assay [2] the target is unchanged. The experiment in a line: cell-free plate assay: PTPσ-Fc on protein A plates, biotinylated aggrecan detected with streptavidin-AP, hyperbolic curve fit.

For the substance “Ncn-AP fusion protein (mouse neurocan amino acids 1-963 fused to placental alkaline phosphatase) (from UniProt P55066 23-963; P05187 23-511)”, the Kd in assay [1] was 11 nM.
Take “biotinylated purified aggrecan (bovine; Sigma) (from UniProt P13608 17-2364)”: the Kd in assay [2] worked out at 19 nM.
